Assay results as given in paper PMC9440017, “Structural basis for Gemin5 decamer-mediated mRNA binding” (Nature Communications, 2022).
Where “and” joins values, the source holds several entries; their conditions need not be identical. Equal values may be shown once.

Assays:
[1] = target: G5C (Gemin5 841-1508) wild type (Homo sapiens) (UniProt Q8TEQ6); experiment: fluorescence polarization; conditions: EMSA: 20 mM Tris-HCl pH 7.5, 100 mM NaCl, 1 h on ice, 0.35 uM RNA; FP: 20 mM Tris-HCl pH 7.5, 150 mM NaCl, 10 nM RNA (40 nM U7), protein 0-41 uM, temperature …
G5C A951E (Homo sapiens) = experiment: fluorescence polarization; conditions: EMSA: 20 mM Tris-HCl pH 7.5, 100 mM NaCl, 1 h on ice, 0.35 uM RNA; FP: 20 mM Tris-HCl pH 7.5, 150 mM NaCl, 10 nM RNA (40 nM U7), protein 0-41 uM, temperature …
G5C M4 (Homo sapiens) = experiment: fluorescence polarization; conditions: EMSA: 20 mM Tris-HCl pH 7.5, 100 mM NaCl, 1 h on ice, 0.35 uM RNA; FP: 20 mM Tris-HCl pH 7.5, 150 mM NaCl, 10 nM RNA (40 nM U7), protein 0-41 uM, temperature …
[2] = target: the molecule itself; experiment: SEC; size-exclusion chromatography of purified G5C wild type and mutants against a molecular weight marker; self-association
[3] = target: the molecule itself; experiment: SEC-MALS; Superose 6 Increase 10/300 GL coupled to DAWN HELEOS 8+; 100 ul at 1 mg/ml; 20 mM Tris-HCl pH 7.5, 330 mM NaCl; self-association

| Molecule | stoichiometry N [2] | also measured |
| --- | --- | --- |
| SL1 RNA, FAM (FP) | – | Kd [1]: 6.5 µM; Kd (G5C A951E (Homo sapiens)): 32 µM; Kd (G5C M4 (Homo sapiens)): 138 µM |
| G5C K1363A/K1436A/R1437A/R1444A/K1492A mutant (domain or fragment, human, UniProt Q8TEQ6 841-1508, looked up, Gemin5, human, residues 841-1508 with K1363A, K1436A, R1437A, R1444A and K1492A; also called M5; source: E. coli BL21 (DE3), purified in the same way as wild-type G5C; not shown: His6, N-terminal, cleaved; copies: 10) KKRKARSLLPLSTSLDHRSKEELHQDCLVLATAKHSRELNEDVSADVEERFHLGLFTDRATLYRMIDIEGKGHLENGHPELFHQLMLWKGDLKGVLQTAAERGELTDNLVAMAPAAGYHVWLWAVEAFAKQLCFQDQYVKAASHLLSIHKVYEAVELLKSNHFYREAIAIAKARLRPEDPVLKDLYLSWGTVLERDGHYAVAAKCYLGATCAYDAAKVLAKKGDAASLRTAAELAAIVGEDELSASLALRCAQELLLANNWVGAQEALQLHESLQGQRLVFCLLELLSRHLEEKQLSEGKSSSSYHTWNTGTEGPFVERVTAVWKSIFSLDTPEQYQEAFQKLQNIKYPSATNNTPAKQLLLHICHDLTLAVLSQQMASWDEAVQALLRAVVRSYDSGSFTIMQEVYSAFLPDGCDHLRDKLGDHQSPATPAFKSLEAFFLYGRLYEFWWSLSRPCPNSSVWVRAGHRTLSVEPSQQLDTASTEETDPETSQPEPNRPSELDLRLTEEGERMLSTFKELFSEAHASLQNSQRTVAEVQETLAEMIRQHQKSQLCKSTANGPDKNEPEVEAEQPLCSSQSQCKEEKNEPLSLPELTAALTEANQAMAKFPESIKAWPFPDVLECCLVLLLIRSHFPGCLAQEMQQQAQELLQAYGNTKTYRRHCQTFCM | 10 | – |
| G5C L1468D/L1469D double mutant (domain or fragment, human, UniProt Q8TEQ6 841-1508, looked up, Gemin5, human, residues 841-1508 with L1468D and L1469D; also called M1; source: E. coli BL21 (DE3), purified in the same way as wild-type G5C; not shown: His6, N-terminal, cleaved) KKRKARSLLPLSTSLDHRSKEELHQDCLVLATAKHSRELNEDVSADVEERFHLGLFTDRATLYRMIDIEGKGHLENGHPELFHQLMLWKGDLKGVLQTAAERGELTDNLVAMAPAAGYHVWLWAVEAFAKQLCFQDQYVKAASHLLSIHKVYEAVELLKSNHFYREAIAIAKARLRPEDPVLKDLYLSWGTVLERDGHYAVAAKCYLGATCAYDAAKVLAKKGDAASLRTAAELAAIVGEDELSASLALRCAQELLLANNWVGAQEALQLHESLQGQRLVFCLLELLSRHLEEKQLSEGKSSSSYHTWNTGTEGPFVERVTAVWKSIFSLDTPEQYQEAFQKLQNIKYPSATNNTPAKQLLLHICHDLTLAVLSQQMASWDEAVQALLRAVVRSYDSGSFTIMQEVYSAFLPDGCDHLRDKLGDHQSPATPAFKSLEAFFLYGRLYEFWWSLSRPCPNSSVWVRAGHRTLSVEPSQQLDTASTEETDPETSQPEPNRPSELDLRLTEEGERMLSTFKELFSEKHASLQNSQRTVAEVQETLAEMIRQHQKSQLCKSTANGPDKNEPEVEAEQPLCSSQSQCKEEKNEPLSLPELTKRLTEANQRMAKFPESIKAWPFPDVLECCLVLDDIRSHFPGCLAQEMQQQAQELLQKYGNTKTYRRHCQTFCM | 2 and 4 | – |
| Gemin5 C-terminal fragment (Gemin5 841-1508), wild type (domain or fragment, human, UniProt Q8TEQ6 841-1508, looked up, Gemin5, human, residues 841-1508 of the 1508-residue protein; Homodecamer (dimer of pentamers) by cryo-EM and static light scattering; also called G5C; G5C wild type; source: E. coli BL21 (DE3), purified (Ni-NTA, TEV cleavage, Superdex 200 gel filtration, mono Q); not shown: His6, N-terminal, cleaved; copies: 10) KKRKARSLLPLSTSLDHRSKEELHQDCLVLATAKHSRELNEDVSADVEERFHLGLFTDRATLYRMIDIEGKGHLENGHPELFHQLMLWKGDLKGVLQTAAERGELTDNLVAMAPAAGYHVWLWAVEAFAKQLCFQDQYVKAASHLLSIHKVYEAVELLKSNHFYREAIAIAKARLRPEDPVLKDLYLSWGTVLERDGHYAVAAKCYLGATCAYDAAKVLAKKGDAASLRTAAELAAIVGEDELSASLALRCAQELLLANNWVGAQEALQLHESLQGQRLVFCLLELLSRHLEEKQLSEGKSSSSYHTWNTGTEGPFVERVTAVWKSIFSLDTPEQYQEAFQKLQNIKYPSATNNTPAKQLLLHICHDLTLAVLSQQMASWDEAVQALLRAVVRSYDSGSFTIMQEVYSAFLPDGCDHLRDKLGDHQSPATPAFKSLEAFFLYGRLYEFWWSLSRPCPNSSVWVRAGHRTLSVEPSQQLDTASTEETDPETSQPEPNRPSELDLRLTEEGERMLSTFKELFSEKHASLQNSQRTVAEVQETLAEMIRQHQKSQLCKSTANGPDKNEPEVEAEQPLCSSQSQCKEEKNEPLSLPELTKRLTEANQRMAKFPESIKAWPFPDVLECCLVLLLIRSHFPGCLAQEMQQQAQELLQKYGNTKTYRRHCQTFCM | – | stoichiometry N [3]: 10 |
| G5C R1035A/K1061A/K1062A/R1090A quadruple mutant (domain or fragment, human, UniProt Q8TEQ6 841-1508, looked up, Gemin5, human, residues 841-1508 with R1035A, K1061A, K1062A and R1090A; also called M4; source: E. coli BL21 (DE3), purified in the same way as wild-type G5C; not shown: His6, N-terminal, cleaved; copies: 10) KKRKARSLLPLSTSLDHRSKEELHQDCLVLATAKHSRELNEDVSADVEERFHLGLFTDRATLYRMIDIEGKGHLENGHPELFHQLMLWKGDLKGVLQTAAERGELTDNLVAMAPAAGYHVWLWAVEAFAKQLCFQDQYVKAASHLLSIHKVYEAVELLKSNHFYREAIAIAKARLRPEDPVLKDLYLSWGTVLEADGHYAVAAKCYLGATCAYDAAKVLAAAGDAASLRTAAELAAIVGEDELSASLALACAQELLLANNWVGAQEALQLHESLQGQRLVFCLLELLSRHLEEKQLSEGKSSSSYHTWNTGTEGPFVERVTAVWKSIFSLDTPEQYQEAFQKLQNIKYPSATNNTPAKQLLLHICHDLTLAVLSQQMASWDEAVQALLRAVVRSYDSGSFTIMQEVYSAFLPDGCDHLRDKLGDHQSPATPAFKSLEAFFLYGRLYEFWWSLSRPCPNSSVWVRAGHRTLSVEPSQQLDTASTEETDPETSQPEPNRPSELDLRLTEEGERMLSTFKELFSEKHASLQNSQRTVAEVQETLAEMIRQHQKSQLCKSTANGPDKNEPEVEAEQPLCSSQSQCKEEKNEPLSLPELTKRLTEANQRMAKFPESIKAWPFPDVLECCLVLLLIRSHFPGCLAQEMQQQAQELLQKYGNTKTYRRHCQTFCM | 10 | – |
| G5C L1381D/M1384D/I1385D triple mutant (domain or fragment, human, UniProt Q8TEQ6 841-1508, looked up, Gemin5, human, residues 841-1508 with L1381D, M1384D and I1385D; also called M2; source: E. coli BL21 (DE3), purified in the same way as wild-type G5C; not shown: His6, N-terminal, cleaved) KKRKARSLLPLSTSLDHRSKEELHQDCLVLATAKHSRELNEDVSADVEERFHLGLFTDRATLYRMIDIEGKGHLENGHPELFHQLMLWKGDLKGVLQTAAERGELTDNLVAMAPAAGYHVWLWAVEAFAKQLCFQDQYVKAASHLLSIHKVYEAVELLKSNHFYREAIAIAKARLRPEDPVLKDLYLSWGTVLERDGHYAVAAKCYLGATCAYDAAKVLAKKGDAASLRTAAELAAIVGEDELSASLALRCAQELLLANNWVGAQEALQLHESLQGQRLVFCLLELLSRHLEEKQLSEGKSSSSYHTWNTGTEGPFVERVTAVWKSIFSLDTPEQYQEAFQKLQNIKYPSATNNTPAKQLLLHICHDLTLAVLSQQMASWDEAVQALLRAVVRSYDSGSFTIMQEVYSAFLPDGCDHLRDKLGDHQSPATPAFKSLEAFFLYGRLYEFWWSLSRPCPNSSVWVRAGHRTLSVEPSQQLDTASTEETDPETSQPEPNRPSELDLRLTEEGERMLSTFKELFSEKHASLQNSQRTVAEVQETDAEDDRQHQKSQLCKSTANGPDKNEPEVEAEQPLCSSQSQCKEEKNEPLSLPELTKRLTEANQRMAKFPESIKAWPFPDVLECCLVLLLIRSHFPGCLAQEMQQQAQELLQKYGNTKTYRRHCQTFCM | 2 and 4 | – |
| G5C L1469H single mutant (domain or fragment, human, UniProt Q8TEQ6 841-1508, looked up, Gemin5, human, residues 841-1508 with L1469H; also called M3; source: E. coli BL21 (DE3), purified in the same way as wild-type G5C; not shown: His6, N-terminal, cleaved; copies: 10) KKRKARSLLPLSTSLDHRSKEELHQDCLVLATAKHSRELNEDVSADVEERFHLGLFTDRATLYRMIDIEGKGHLENGHPELFHQLMLWKGDLKGVLQTAAERGELTDNLVAMAPAAGYHVWLWAVEAFAKQLCFQDQYVKAASHLLSIHKVYEAVELLKSNHFYREAIAIAKARLRPEDPVLKDLYLSWGTVLERDGHYAVAAKCYLGATCAYDAAKVLAKKGDAASLRTAAELAAIVGEDELSASLALRCAQELLLANNWVGAQEALQLHESLQGQRLVFCLLELLSRHLEEKQLSEGKSSSSYHTWNTGTEGPFVERVTAVWKSIFSLDTPEQYQEAFQKLQNIKYPSATNNTPAKQLLLHICHDLTLAVLSQQMASWDEAVQALLRAVVRSYDSGSFTIMQEVYSAFLPDGCDHLRDKLGDHQSPATPAFKSLEAFFLYGRLYEFWWSLSRPCPNSSVWVRAGHRTLSVEPSQQLDTASTEETDPETSQPEPNRPSELDLRLTEEGERMLSTFKELFSEKHASLQNSQRTVAEVQETLAEMIRQHQKSQLCKSTANGPDKNEPEVEAEQPLCSSQSQCKEEKNEPLSLPELTKRLTEANQRMAKFPESIKAWPFPDVLECCLVLLHIRSHFPGCLAQEMQQQAQELLQKYGNTKTYRRHCQTFCM | 10 | – |
